Values belong to the binder of their own block, whether it stands above or below them.
Assays:
human TNFα [1] = target: T1, human TNFα (human, UniProt P01375 77-233); assay: TNF receptor assay (ELISA): inhibition of TNF binding to plate-bound TNF receptor 1-Fc
T1 construct: also called TAR1; TNF alpha

human TNFα [2] = target: T1, human TNFα; assay: cell-based or functional assay
human TNFα [3] = target: T1, human TNFα; assay: not stated; printed in the column 'Equilibrium dissocation constant (Kd = Koff/Kon)' of the data summary
human TNFα [4] = target: T1, human TNFα; assay: TNF receptor assay (ELISA): inhibition of TNF binding to plate-bound TNF receptor 1-Fc; remark: listed apart in the source
human TNFα [5] = target: T1, human TNFα; assay: ELISA on 1 ug/ml TNF, 200 nM IgG, anti-Fc-HRP
Procedure: A 96 well plate was coated with 100 ul of INF and TNFRI at 1 ug/ml concentration in PBS overnight at 4 C. 50 ul (200 nM) of IgG was then added to the wells and bound IgG was detected via anti-Fc-HRP.

hen egg lysozyme [6] = target: T2, hen egg lysozyme (hen, UniProt P00698 19-147); assay: ELISA on coated hen egg lysozyme, detection with 9e10 and anti mouse IgG-HRP
T2 construct: also called HEL; HL

hen egg lysozyme [7] = target: T2, hen egg lysozyme; assay: selection from a dAb library
mouse serum albumin [8] = target: T3, mouse serum albumin (mouse, UniProt P07724 25-608); assay: inhibition biacore: dAb premixed with MSA, binding to MSA-coated CM5 chip, Klotz plot (estimated Kd)
T3 construct: biotinylated MSA (about 2 biotins per molecule) in the capture ELISA; also called MSA
Procedure: The purified dabs were then analysed by inhibition biacore to determine Kd. […] Once the required concentrations of dAb had been determined, MSA antigen at a range of concentrations around the expected Kd was premixed with the dAb and incubated overnight. Binding to the MSA coated biacore chip of dAb in each of the premixes was then measured at a high flow-rate of 30 μl/minute.

human serum albumin = target: T4, human serum albumin (human, UniProt P02768 25-609); assay: capture ELISA: dAb on protein L, biotinylated HSA, streptavidin-HRP
T4 construct: also called HSA
Procedure: (§1) Two rounds of selection were performed on serum albumin using each of the libraries separately. For each selection, antigen was coated on immunotube (nunc) in 4 ml of PBS at a concentration of 100 μg/ml. In the first round of selection, each of the three libraries was panned separately against HSA (Sigma) and MSA (Sigma). In the second round of selection, phage from each of the six first round selections was panned against (i) the same antigen again (eg 1st round MSA, 2nd round MSA) and (ii) against the reciprocal antigen (eg 1st round MSA, 2nd round HSA) resulting in a total of twelve 2nd round selections. In each case, after the second round of selection 48 clones were tested for binding to HSA and MSA. Soluble dAb fragments were produced as described for scFv fragments by Harrison et al, Methods Enzymol. 1996; 267:83-109 and standard ELISA protocol was followed (Hoogenboom et al. (1991) Nucleic Acids Res., 19: 4133) except that 2% tween PBS was used as a blocking buffer and bound dabs were detected with either protein LHRP (Sigma) (for the Vκs) and protein A—HRP (Amersham Pharmacia Biotech) (for the VHs).
Next, the serum albumin binding dAbs were tested for their ability to capture biotinylated antigen from solution. ELISA protocol (as above) was followed except that ELISA plate was coated with 1 μg/ml protein L (for the Vκ clones) and 1 μg/ml protein A (for the VH clones). […]

mouse serum albumin [9] = target: T3, mouse serum albumin; assay: capture ELISA: dAb on protein L, biotinylated MSA, streptavidin-HRP
Procedure: as §1
Next, the serum albumin binding dAbs were tested for their ability to capture biotinylated antigen from solution. ELISA protocol (as above) was followed except that ELISA plate was coated with 1 μg/ml protein L (for the Vκ clones) and 1 μg/ml protein A (for the VH clones). Soluble dAb was captured from solution as in the protocol and detection was with biotinylated MSA or HSA and streptavidin HRP. The biotinylated MSA and HSA had been prepared according to the manufacturer's instructions, with the aim of achieving an average of 2 biotins per serum albumin molecule. […] Next, the dAbs were tested for their ability to bind MSA coated on a CM5 biacore chip.

human TNFα [10] = target: T1, human TNFα; assay: TNF receptor assay (ELISA), fermenter material purified by cation exchange FPLC
human TNFα [11] = target: T1, human TNFα; assay: TNF receptor assay (ELISA): inhibition of TNF binding to plate-bound TNF receptor 1-Fc; remark: listed apart in the source

T2 sequence (P00698 19-147): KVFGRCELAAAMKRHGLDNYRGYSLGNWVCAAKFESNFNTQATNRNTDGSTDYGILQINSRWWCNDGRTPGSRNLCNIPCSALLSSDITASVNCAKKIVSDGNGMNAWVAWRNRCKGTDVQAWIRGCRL
T3 sequence (P07724 25-608 limits assumed): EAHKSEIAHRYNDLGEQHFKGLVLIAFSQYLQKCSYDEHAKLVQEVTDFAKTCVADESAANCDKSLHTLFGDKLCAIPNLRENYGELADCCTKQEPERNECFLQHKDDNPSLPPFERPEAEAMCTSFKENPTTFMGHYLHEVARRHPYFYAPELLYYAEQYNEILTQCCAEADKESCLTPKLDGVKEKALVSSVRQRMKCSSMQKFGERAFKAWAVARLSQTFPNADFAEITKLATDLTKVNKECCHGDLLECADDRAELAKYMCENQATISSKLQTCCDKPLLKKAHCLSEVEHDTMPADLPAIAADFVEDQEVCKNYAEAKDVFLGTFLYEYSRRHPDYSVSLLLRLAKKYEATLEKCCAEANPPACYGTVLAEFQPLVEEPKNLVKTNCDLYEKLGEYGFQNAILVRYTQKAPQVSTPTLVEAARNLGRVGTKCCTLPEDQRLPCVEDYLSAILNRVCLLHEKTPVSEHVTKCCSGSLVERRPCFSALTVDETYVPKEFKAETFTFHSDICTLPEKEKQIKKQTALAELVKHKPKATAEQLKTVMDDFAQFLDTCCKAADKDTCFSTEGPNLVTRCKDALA
T1 sequence (P01375 77-233 limits assumed): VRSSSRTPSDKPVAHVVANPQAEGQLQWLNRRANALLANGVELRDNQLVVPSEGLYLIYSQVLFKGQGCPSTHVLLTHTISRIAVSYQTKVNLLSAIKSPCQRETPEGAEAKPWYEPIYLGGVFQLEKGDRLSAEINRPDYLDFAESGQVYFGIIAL

IC50 (human TNFα [1]): 0.3 nM
B1: trimeric TAR1-5-19CYS (other)
chain: DIQMTQSPSSLSASVGDRVTITCRASQSIDSYLHWYQQKPGKAPKLLIYSASELQSGVPSRFSGSGSGTDFTLTISSLQPEDFATYYCQQVVWRPFTFGQGTKVEIKRC
modifications: C-terminal Cys coupled to TMEA (Tris[2-maleimidoethyl]amine)
notes: also called the trimer; TAR1-5-19 homotrimer

ND50 in the cell assay (human TNFα [2]): ~30 nM
Kd (human TNFα [3]): 30 nM
IC50 (human TNFα [4]): 30 nM
B2: TAR1-5-19 dAb monomer (other)
VL: DIQMTQSPSSLSASVGDRVTITCRASQSIDSYLHWYQQKPGKAPKLLIYSASELQSGVPSRFSGSGSGTDFTLTISSLQPEDFATYYCQQVVWRPFTFGQGTKVEIKR
notes: also called TAR1-5-19 monomer; TAR1-5-19 Vκ dAb

binding result (human TNFα [5]): binds
B3: TAR1/TAR2 IgG (bispecific antibody, V domains shown)
VH: EVQLLESGGGLVQPGGSLRLSCAASGFTFEWYWMGWVRQAPGKGLEWVSAISGSGGSTYYADSVKGRFTISRDNSKNTLYLQMNSLRAEDAAVYYCAKVKLGGGPNFGYRGQGTLVTVSS
VL: DIQMTQSPSSLSASVGDRVTITCRASQSIDSYLHWYQQKPGKAPKLLIYSASELQSGVPSRFSGSGSGTDFTLTISSLQPEDFATYYCQQVVWRPFTFGQGTKVEIKR
notes: expressed in COS7 cells with CD33 or IgG κ leader, purified on Protein A; also called the IgG; not shown: IgG1 heavy chain constant region (CH1 from the CH vector; hinge, CH2 and CH3 from the pigplus vector); light chain kappa constant region (CK domain from the CK vector)

ELISA signal (hen egg lysozyme [6]): 0.154
B4: VH CH/VH Cκ dual specific Fab like fragment (HEL4 CH, TAR2-5 Cκ) (Fab, V domains shown, not shown: a dimerising Fc or GST; small tags and cut ends)
V domain 1: EVQLLESGGGLVQPGGSLRLSCAASGFRISDEDMGWVRQAPGKGLEWVSSIYGPSGSTYYADSVKGRFTISRDNSKNTLYLQMNSLRAEDTAVYYCASALEPLSEPLGFWGQGTLVTVSS
V domain 2: EVQLLESGGGLVQPGGSLRLSCAASGFTFDLYNMFWVRQAPGKGLEWVSFISQTGRLTWYADSVKGRFTISRDNSKNTLYLQMNSLRAEDTAVYYCAKTLEDFDYWGQGTLVTVSS

binding result (hen egg lysozyme [7]): binds
B5: HEL4 (other)
VH: EVQLLESGGGLVQPGGSLRLSCAASGFRISDEDMGWVRQAPGKGLEWVSSIYGPSGSTYYADSVKGRFTISRDNSKNTLYLQMNSLRAEDTAVYYCASALEPLSEPLGFWGQGTLVTVSS
notes: also called VH dAb HEL4; anti-hen egg white lysozyme dAb

ELISA signal (hen egg lysozyme [6]): 0.069
B6: VH Cκ chain expressed alone (protein, not shown: a dimerising Fc or GST; small tags and cut ends)
VH: EVQLLESGGGLVQPGGSLRLSCAASGFTFDLYNMFWVRQAPGKGLEWVSFISQTGRLTWYADSVKGRFTISRDNSKNTLYLQMNSLRAEDTAVYYCAKTLEDFDYWGQGTLVTVSS

Kd (mouse serum albumin [8]): 200 nM
B7: MSA16 (other)
VL: DIQMTQSPSSLSASVGDRVTITCRASQSIIKHLKWYQQKPGKAPKLLIYGASRLQSGVPSRFSGSGSGTDFTLTISSLQPEDFATYYCQQGARWPQTFGQGTKVEIK
notes: also called 21; dAb MSA16

binding result (human serum albumin): binds
binding result (mouse serum albumin [9]): binds
B8: anti-serum albumin Vκ dAb clones 2, 4, 7, 41 (other)
VL: DIQMTQSPSSLSASVGDRVTITCRASQSISSYLNWYQQKPGKAPKLLIYRASPLQSGVPSRFSGSGSGTDFTLTISSLQPEDFATYYCQQTYSVPPTFGQGTKVEIK

binding result (human serum albumin): binds
binding result (mouse serum albumin [9]): binds
B9: anti-serum albumin Vκ dAb clones 38, 54 (other)
VL: DIQMTQSPSSLSASVGDRVTITCRASQSISSYLNWYQQKPGKAPKLLIYRASPLQSGVPSRFSGSGSGTDFTLTISSLQPEDFATYYCQQTYRIPPTFGQGTKVEIK

Kd (mouse serum albumin [8]): 70 nM
B10: MSA26 (other)
VL: DIQMTQSPSSLSASVGDRVTITCRASQSIYYHLKWYQQKPGKAPKLLIYKASTLQSGVPSRFSGSGSGTDFTLTISSLQPEDFATYYCQQVRKVPRTFGQGTKVEIK
notes: also called 25; dAb MSA26

IC50 (human TNFα [10]): 8 nM
IC50 (human TNFα [11]): 2 to 5 nM
ND50 in the cell assay (human TNFα [2]): ~5 nM
B11: TAR1-5-19d4 (other)
chain: DIQMTQSPSSLSASVGDRVTITCRASQSIDSYLHWYQQKPGKAPKLLIYSASELQSGVPSRFSGSGSGTDFTLTISSLQPEDFATYYCQQVVWRPFTFGQGTKVEIKRGGGGSGGGGSGGGGSGGGGSGGGGSDIQMTQSPSSLSASVGDRVTITCRASQSVKEFLWWYQQKPGKAPKLLIYMASNLQSGVPSRFSGSGSGTDFTLTISSLQPEDFATYYCQQKFKLPRTFGQGTKVEIK

— patent US20060257406A1 (published 2006)
